Each block holds one binder with its values, some of them ahead of it.
How the values were obtained:
human MASP-1 = target: T1, human MASP-1 (human, UniProt P48740 20-699); assay: cell-based or functional assay
T1 sequence: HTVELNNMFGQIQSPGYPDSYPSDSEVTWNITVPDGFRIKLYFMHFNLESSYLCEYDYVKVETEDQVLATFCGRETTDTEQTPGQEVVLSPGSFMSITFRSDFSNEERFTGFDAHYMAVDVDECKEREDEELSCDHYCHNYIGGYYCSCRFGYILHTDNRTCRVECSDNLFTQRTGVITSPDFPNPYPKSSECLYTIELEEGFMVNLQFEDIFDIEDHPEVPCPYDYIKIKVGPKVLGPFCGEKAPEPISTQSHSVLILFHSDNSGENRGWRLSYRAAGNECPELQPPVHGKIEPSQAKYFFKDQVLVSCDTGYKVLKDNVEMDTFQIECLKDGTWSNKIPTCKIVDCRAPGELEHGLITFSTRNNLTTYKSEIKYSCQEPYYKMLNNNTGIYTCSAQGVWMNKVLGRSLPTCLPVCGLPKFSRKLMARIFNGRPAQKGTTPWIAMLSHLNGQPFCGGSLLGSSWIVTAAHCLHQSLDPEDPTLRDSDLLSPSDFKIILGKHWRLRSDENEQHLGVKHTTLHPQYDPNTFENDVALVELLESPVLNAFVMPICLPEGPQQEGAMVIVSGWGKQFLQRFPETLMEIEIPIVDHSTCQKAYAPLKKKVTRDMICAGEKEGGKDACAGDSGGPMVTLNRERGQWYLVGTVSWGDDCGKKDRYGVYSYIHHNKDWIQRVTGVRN

[1] = target: T2, Human MASP-1 (CCP1-CCP2-SP S646A) (human, UniProt P48740 298-699, labelled with NHS-PEG4-Biotin (sites not given)); assay: ELISA, antibody captured by goat anti-human IgG, 8 nM biotinylated antigen, streptavidin-HRP
T2 construct: biotinylated for the ELISAs; also called N-terminally Flag-tagged human MASP-1 (CCP1-CCP2-SP S646A); not shown: N-terminal Flag-tag
T2 sequence: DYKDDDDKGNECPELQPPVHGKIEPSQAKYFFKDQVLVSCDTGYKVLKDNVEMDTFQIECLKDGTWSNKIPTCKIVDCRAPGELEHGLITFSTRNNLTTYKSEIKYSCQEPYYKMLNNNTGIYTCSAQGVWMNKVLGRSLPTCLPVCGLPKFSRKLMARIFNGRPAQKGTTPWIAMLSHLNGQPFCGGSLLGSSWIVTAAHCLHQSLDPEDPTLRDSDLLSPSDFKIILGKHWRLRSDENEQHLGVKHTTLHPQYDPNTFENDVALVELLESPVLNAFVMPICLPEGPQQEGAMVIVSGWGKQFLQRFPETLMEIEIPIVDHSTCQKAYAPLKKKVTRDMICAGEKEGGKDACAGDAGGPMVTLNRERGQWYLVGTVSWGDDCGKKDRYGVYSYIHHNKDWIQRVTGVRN
Procedure: (§1) ELISA assay was used to check the cross-reactivity of the chimeric monoclonal antibodies generated in 3.1 against human MASP-1 and human MASP-3. Goat anti-human IgG polyclonal antibody (Thermo Scientific, H10500) was diluted to 1 micro g/ml with PBS (-) and added to 384-well MAXISorp plates (Nunc, Cat No. 164688). The plates were incubated for 1 hour at room temperature, and blocked with Blocking One (Nacalai Tesque, Cat No. 03953-95) diluted 5 times. The plates were incubated for 1 hour, washed, and anti-MASP-1 antibody was added and incubated for 1 hour. Human MASP-1 (CCP1-CCP2-SP S646A) or human MASP-3 (CCP1-CCP2-SP S664A) was labelled with NHS-PEG4-Biotin (PIERCE, Cat No. 21329). After incubation, the plates were washed and 8 nM of labeled antigen was added and incubated for 1 hour. After incubation, the plates were washed and Streptavidin-HRP conjugate (Thermo Scientific 21130) were added. After 1 hour incubation, binding of biotinylated antigen was detected by the addition of ABTS (KPL, Cat No. 50-66-06). Anti-MASP-1 monoclonal antibodies listed in Table 5 were selected as MASP-1 specific antibodies and used for further analysis.

[2] = target: T3, Human MASP-3 (CCP1-CCP2-SP S664A) (human, labelled with NHS-PEG4-Biotin (sites not given)); assay: as above
T3 construct: Biotinylated for the cross-reactivity ELISA; also called N-terminally Flag-tagged human MASP-3 (CCP1-CCP2-SP S664A); not shown: N-terminal Flag-tag
T3 chain: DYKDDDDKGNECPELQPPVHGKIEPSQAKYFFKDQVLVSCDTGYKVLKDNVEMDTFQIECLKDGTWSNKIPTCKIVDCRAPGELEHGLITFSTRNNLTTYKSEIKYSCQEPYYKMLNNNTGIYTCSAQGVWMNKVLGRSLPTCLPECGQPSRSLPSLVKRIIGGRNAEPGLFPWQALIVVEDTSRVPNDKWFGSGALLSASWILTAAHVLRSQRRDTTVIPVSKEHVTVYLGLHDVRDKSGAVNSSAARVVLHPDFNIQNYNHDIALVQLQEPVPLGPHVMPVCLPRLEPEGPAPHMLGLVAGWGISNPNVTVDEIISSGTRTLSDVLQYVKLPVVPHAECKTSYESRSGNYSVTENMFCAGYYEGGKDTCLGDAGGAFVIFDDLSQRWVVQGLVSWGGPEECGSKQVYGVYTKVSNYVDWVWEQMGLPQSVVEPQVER
Procedure: as §1

B1: MAS0154dd (antibody, human IgG4 S228P, kappa, V domains shown)
VH: QSVEESGGRLVTPGTPLTLTCTVSGFSLSNYNMGWVRQAPGEGLEYIGIISSQGDIYYATWAKGRFTISKTSTTVDLKITSPTTEDTATYFCARARHVGSAADSYFHLWGLGTLVTVSS
VL: AVVLTQTASPVSAAVGGTVTINCQASEEIYRNLAWYQQKPGQRPKLLIYGASNLASGVPSRFSGSGSGTEYTLTISDLECADAATYYCQRYAWGKNSADGNTFGGGTKVEIKR
notes: Rabbit/human chimeric antibody: rabbit variable regions recombined with F760G4 and kOMTC constant regions; also called anti-MASP-1 chimeric mAb MAS0154dd
IC50 of inhibition of human C4c deposition (C4c ELISA, normal human serum on mannan) (human MASP-1): 0.11 µg/mL
absorbance at 405 nm after background subtraction [1]: 1.95 absorbance at 405 nm
absorbance at 405 nm after background subtraction [2]: 0.078 absorbance at 405 nm

B3: MAS0116aa (antibody, human IgG4 S228P, kappa, V domains shown)
VH: QSLEESGGRLVTPGTPLTLTCTASGFSLSSCYMSWVRQAPGEGLEWIGTIYTGSGATYYASWAKGRFTVSITSTTVDLKITSPTTEDTATYFCARAIYPGSSSSNLCAFDLWGPGTLVTVSS
VL: QVLTQTPASVSAAVGGTVTINCQASQSVYDNNWLAWYQQKPGQPPKLLIYQASSLASGVPSRFKGSGSGAQFTLTISDLECDDAATYFCQGYYAGVLYSFGGGTKVEIKR
notes: Rabbit/human chimeric antibody: rabbit variable regions recombined with F760G4 and kOMTC constant regions; also called anti-MASP-1 chimeric mAb MAS0116aa
IC50 of inhibition of human C4c deposition (C4c ELISA, normal human serum on mannan) (human MASP-1): 0.47 µg/mL
absorbance at 405 nm after background subtraction [1]: 1.72 absorbance at 405 nm
absorbance at 405 nm after background subtraction [2]: 0.055 absorbance at 405 nm

B5: MAS0177hh (antibody, human IgG4 S228P, kappa, V domains shown)
VH: QSVEESGGRLVTPGTPLTLTCTASGFSLSSAYMNWVRQAPGKGLEWIGIIYASGSTWYASWAKGRFTISKTSTTVDLKITSPTTEDTATYFCARDDYGTADLWGPGTLVTVSS
VL: AVVLTQTASPVSAPVGGTVTIKCQASQSIGSSLAWYQQKPGQSPKLLIYGASTLVSGVSSRFSGSRSGTEFSLTISDLECADAATYYCQNYYLSSSSADRRTFGGGTKVEIKR
notes: Rabbit/human chimeric antibody: rabbit variable regions recombined with F760G4 and kOMTC constant regions; also called anti-MASP-1 chimeric mAb MAS0177hh
IC50 of inhibition of human C4c deposition (C4c ELISA, normal human serum on mannan) (human MASP-1): 3.29 µg/mL
absorbance at 405 nm after background subtraction [1]: 0.898 absorbance at 405 nm
absorbance at 405 nm after background subtraction (absorbance at 405 nm) [2]: 0.388

Next, values leading:

IC50 of inhibition of human C4c deposition (C4c ELISA, normal human serum on mannan) (human MASP-1): 0.29 µg/mL
absorbance at 405 nm after background subtraction [1]: 1.98 absorbance at 405 nm
absorbance at 405 nm after background subtraction [2]: -0.027 absorbance at 405 nm
B2: MAS0102dd (antibody, human IgG4 S228P, kappa, V domains shown)
VH: QSVEESGGRLVTPGTPLTLTCTVSGFSLSSYAMSWVRQAPGKGLEWIGIITNLDNTYYANWAKGRFTISKTSTTVDLKITSPTTEDTAAYLCARERIKRKYSYDDYGGWAFDPWGPGTLVTVSS
VL: QVLTQTPSSVSGPVGGTVTINCQAIENIYRSLAWYQQKPGQPPKLLIYDTSDLASGVPSRFSGSGSGTEYTLTISGVQCDDAATYYCQSYYYSSVTYNAFGGGTKVEIKR
notes: Rabbit/human chimeric antibody: rabbit variable regions recombined with F760G4 and kOMTC constant regions; also called anti-MASP-1 chimeric mAb MAS0102dd

IC50 of inhibition of human C4c deposition (C4c ELISA, normal human serum on mannan) (human MASP-1): 0.45 µg/mL
absorbance at 405 nm after background subtraction [1]: 1.51 absorbance at 405 nm
absorbance at 405 nm after background subtraction [2]: -0.147 absorbance at 405 nm
B4: MAS0141aa (antibody, human IgG4 S228P, kappa, V domains shown)
VH: QSVEESGGRLVTPGTPLTLTCTASGFSLINYYMTWVRQAPGKGLEWIGIINTDGGTYYASWAKGRFTISRTSTTVDLKMTSLTTEDTATYFCARGVFTGGWTGMRTNLWGPGTLVTVSS
VL: DVVMTQTPASVEAAVGGTVTIKCQASEDIYILLAWYQQKPGQPPKLLIYAASNLESGVPSRFKGSGSGTEFTLTISDLECADAATYYCQCTYGSSSSNAFGGGTKVEIKR
notes: Rabbit/human chimeric antibody: rabbit variable regions recombined with F760G4 and kOMTC constant regions; also called anti-MASP-1 chimeric mAb MAS0141aa

IC50 of inhibition of human C4c deposition (C4c ELISA, normal human serum on mannan) (human MASP-1): 0.14 µg/mL
absorbance at 405 nm after background subtraction [1]: 1.79 absorbance at 405 nm
absorbance at 405 nm after background subtraction [2]: -0.068 absorbance at 405 nm
B6: MAS0114bb (antibody, human IgG4 S228P, kappa, V domains shown)
VH: QSVEESGGRLVTPGTPLTLTCTASGFDINNYAIHWVRQAPGEGLEWIGYIYARSGVTWYASWVKGRFTISKTSTTVDLKMTSLTTEDTATYFCARVLAGGGYANTGLSLWGPGTLVTVSS
VL: DIVMTQTPSSVSAAVGGTVTIKCQASQNIGYSSAWYQQKPGQRPKLMIYGASTLASGVPSRFSGSGSGTEYTLTISGVQCDDAATYYCQSNYISSGSVDGTFGGGTKVEIKR
notes: Rabbit/human chimeric antibody: rabbit variable regions recombined with F760G4 and kOMTC constant regions; also called anti-MASP-1 chimeric mAb MAS0114bb

— patent US20210115154A1 (Chugai, published 2021)
